# In paper PMC8087942, “Full closed loop open‐source algorithm performance comparison in pigs with diabetes” (Clinical and Translational Medicine, 2021):
# Test: Insulin lispro pharmacokinetics after subcutaneous Humalog in fasted pigs with diabetes (plasma lispro by ELISA)
# Format: in vivo, pig
# Details: pilot study, pigs with diabetes (n = 6), fasted 4–6 h, 4 U Humalog (100 U/ml) subcutaneous, plasma lispro by Insulin Lispro ELISA (Mercodia)
# Method: Insulin pharmacokinetics are more rapid in pigs than in humans. ^19 , ^20 , ^29 Thus, it was necessary to construct models for insulin action to be used in both open‐source systems, which model insulin action as an exponential curve. In AndroidAPS, the parameters defining the curve are time‐to‐peak action (TPA) and total duration of insulin action (DIA). ^23 Loop uses time‐to‐onset, TPA, and DIA. ^15 The pig pharmacokinetic curves for use in open‐source algorithms were determined from data obtained during a pilot study in pigs (n = 6). This experimental pharmacokinetic curve is consistent with pharmacokinetics observed in the pigs used in this study. ^20 Pigs were kept on fast 4–6 h and then injected subcutaneously with a 4 U dose of Humalog (100 U/ml, Eli Lilly). Before injection, baseline blood was sampled from an intravenous catheter line and measured using a handheld glucose monitor (Bayer Contour Next). After injection, blood was sampled from the intravenous catheter line every 5 min for the first 60 min, then every 30 min up to 4 h. Blood was collected in K2EDTA plasma tubes (Greiner‐BioOne) for analysis with ELISA. Plasma lispro concentrations were quantified using an Insulin Lispro ELISA kit (Mercodia). Pharmacodynamics were approximated by blood glucose measurements in a stable fasting state after 2–3 h (Figure 2A). […]
substance,measurement,setting,value
"Humalog: Commercial rapid-acting insulin lispro formulation (100 U/ml, Eli Lilly) injected subcutaneously in pigs",near complete exposure duration,,~2 h
same,time of peak serum concentrations,"sampled every 5 min for 60 min, then every 30 min up to 4 h",20 to 25 min
